# Source: patent US11879149B2, “Quantification method of ethanolamine phosphate, oxidoreductase for quantification, composition for quantification, kit for quantification and sensor for quantification” (KIKKOMAN CORPORATION, priority 2018, dated 2024)
# Key:
# [1] = Oxidase activity measurement and pH dependence of AgPEAOX (4-AA/TOOS/POD, A555); type: biochemical
# Protocol: Oxidase activity was measured for the expressed, purified AgPEAOX by the methods described above. After incubating 609 μl of a reagent consisting of the composition of Table 5 at 37° C. for 5 minutes, 21 μl of a substrate solution (1500 mM EAP) was added and mixed, and the amount of change at A555 (ΔAS) per 1 minute at 37° C. was measured using the spectrophotometer (U-3900, manufactured by Hitachi High-Tech Science Corporation).
# Next, 21 μl of ion-exchanged water was added instead of the substrate solution and mixed, and the amount of change at A555 (ΔA0) per 1 minute at 37° C. was measured. […]
# The oxidase activity was calculated based on the following formula: Oxidase activity (U/ml)=(ΔAS−ΔA0)×630×df/(39.2×0.5×x)=32.1×(ΔAS−ΔA0)×df/x • 39.2: Millimolar extinction coefficient (mM^−1cm^−1) of 4-AA-TOOS Condensation dye for 555 nm-wavelength light • df: Dilution rate of enzyme solution (pH-Dependence Measurement of Catalytic Reaction of AgPEAOX)
# When the pH dependence of catalytic reaction of AgPEAOX was measured, the activity was measured by replacing Bicine-NaOH buffer solution pH 8.5 contained in the reagent for activity measurement in Table 5 with a potassium phosphate buffer solution, MOPS-NaOH buffer solution, or Bicine-NaOH adjusted to a predetermined pH.
# [2] = Dehydrogenase activity measurement of AgPEAOX (1-MPES/WST-1, A438); type: biochemical; details: pH 8.5; final concentration of 50 mM EAP; 37° C.
# Protocol: After incubation of 609 μl of the reagent consisting of the composition of Table 3 for 5 minutes at 37° C., 21 μl of the substrate solution (1500 mM EAP) was added and mixed, and the amount of change at A438 (ΔAS) per 1 minute at 37° C. was measured using the spectrophotometer (U-3900, manufactured by Hitachi High-Tech Science Corporation).
# Next, 21 μl of ion-exchanged water was added instead of the substrate solution and mixed, and the amount of change at A438 (ΔA0) per 1 minute at 37° C. was measured. 1-methoxy-5-ethylphenazinium ethyl sulfate (1-MPES), and 2-(4-iodophenyl)-3-(4-nitrophenyl)-5-(2,4-disulfophenyl)-2H-tetrazolium monosodium salt (WST-1) manufactured by DOJINDO LABORATORIES were used.
# Dehydrogenase activity was calculated based on the following formula: Dehydrogenase activity (U/ml)=(ΔAS−ΔA0)×630×df/(37.0×x)=17.0×(ΔAS−ΔA0)×df/x • 37.0: Millimolar extinction coefficient (mM^−1 cm^−1) of WST-1 formazan dye for 438 nm-Wavelength Light • df: Dilution rate of enzyme solution (Quantification of EAP by AgPEAOX)
substance,measurement,setting,value
"AgPEAOX: phenylethylamine oxidase derived from Arthrobacter globiformis, UniProt ID P46881, SEQ ID NO: 9",oxidase activity of purified AgPEAOX solution,"[1]; pH 8.5, final concentration of 50 mM EAP, 37° C.",2.29 U/ml (*purified AgPEAOX solution)
same,optimum pH for the catalytic reaction (oxidase activity),"[1]; potassium phosphate, MOPS-NaOH or Bicine-NaOH buffers, FIG. 3",8.5
same,dehydrogenase activity of purified AgPEAOX solution,[2],0.069 U/ml (*purified AgPEAOX solution)
